Test [1] deals with microtubules of porcine brain tubulin (pig (endogenous in brain)) (UniProt P02550).
Test [2] concerns the target GFP-tagged human cytoplasmic dynein complex (human) (UniProt Q14204). The experiment in a line: TIRF microscopy of purified proteins on static GMPCPP microtubules (single-particle colocalisation); 5 nM GFP-dynein, 10 nM pig dynactin, 200 nM BicD2-N, 50 nM mCherry-Lis1; immobilised GMPCPP microtubules; assay buffer AB.
Test [3] shares this target. The test is described as follows: TIRF microscopy of purified proteins on static GMPCPP microtubules (single-particle colocalisation); 5 nM GFP-dynein, 10 nM pig dynactin, 200 nM BicD2-N, 50 nM mCherry-Lis1; immobilised GMPCPP microtubules; HEPES-based buffer (60 mM HEPES pH 7.4, 50 mM K-acetate, 2 mM MgCl2, 10% glycerol, 2 mM ATP).

With “native dynactin complex from pig brain (from UniProt A0A287B8J2 1-1281; A0A5G2QD80 1-405; F2Z5G5 1-349)”, in test [1], the initiation probability of processive DDB runs within the first 360 nm from the growing microtubule plus end, without EB1 (average 0.05 per 360 nm segment anywhere on the microtubule) amounted to 0.33.

B1: mCherry-Lis1 (human Lissencephaly-1) (natural protein)
chain: MVLSQRQRDELNRAIADYLRSNGYEEAYSVFKKEAELDVNEELDKKYAGLLEKKWTSVIRLQKKVMELESKLNEAKEEFTSGGPLGQKRDPKEWIPRPPEKYALSGHRSPVTRVIFHPVFSVMVSASEDATIKVWDYETGDFERTLKGHTDSVQDISFDHSGKLLASCSADMTIKLWDFQGFECIRTMHGHDHNVSSVAIMPNGDHIVSASRDKTIKMWEVQTGYCVKTFTGHREWVRMVRPNQDGTLIASCSNDQTVRVWVVATKECKAELREHEHVVECISWAPESSYSSISEATGSETKKSGKPGPFLLSGSRDKTIKMWDVSTGMCLMTLVGHDNWVRGVLFHSGGKFILSCADDKTLRVWDYKNKRCMKTLNAHEHFVTSLDFHKTAPYVVTGSVDQTVKVWECR
Take B1: the percent of processive DDB particles with Lis1 bound in test [2] stood at 9%; in test [3], 16%.
